Tested on: peptide library, one residue held at a place counted from the S/T acceptor
Assay: relative phosphorylation of the sub-library (ratio to the mean residue at this position); human; higher = residue favoured
Conditions: N fixed; at -3
Method in brief: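 Relative sub-library phosphorylation is the ratio of each sub-library's signal to the mean residue at that position. The signal came from phosphorimaging of spots on streptavidin membranes, quantified by densitometry, after purified recombinant kinases reacted with biotinylated degenerate peptide sub-libraries in 384-well plates. Reactions held 50 μM peptide and 50 μM ATP spiked with γ-32P-ATP for 90 min under kinase-specific conditions.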

Sequence of MAP3K10, construct: aa1-449 (Q02779 1-449, looked up): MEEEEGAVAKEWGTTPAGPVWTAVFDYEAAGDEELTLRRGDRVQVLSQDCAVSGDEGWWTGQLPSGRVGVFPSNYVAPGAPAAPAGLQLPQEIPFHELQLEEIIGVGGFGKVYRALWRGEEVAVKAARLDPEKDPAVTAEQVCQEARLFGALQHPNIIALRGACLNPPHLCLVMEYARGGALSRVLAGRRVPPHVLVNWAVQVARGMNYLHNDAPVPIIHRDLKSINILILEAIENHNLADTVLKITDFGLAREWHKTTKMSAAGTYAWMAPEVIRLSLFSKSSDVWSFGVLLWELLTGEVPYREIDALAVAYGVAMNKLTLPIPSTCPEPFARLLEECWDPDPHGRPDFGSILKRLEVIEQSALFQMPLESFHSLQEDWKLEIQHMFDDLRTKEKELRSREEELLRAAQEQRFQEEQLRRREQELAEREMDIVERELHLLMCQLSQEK
Sequence of CAMK1, construct: Full length (Q14012 whole entry, looked up): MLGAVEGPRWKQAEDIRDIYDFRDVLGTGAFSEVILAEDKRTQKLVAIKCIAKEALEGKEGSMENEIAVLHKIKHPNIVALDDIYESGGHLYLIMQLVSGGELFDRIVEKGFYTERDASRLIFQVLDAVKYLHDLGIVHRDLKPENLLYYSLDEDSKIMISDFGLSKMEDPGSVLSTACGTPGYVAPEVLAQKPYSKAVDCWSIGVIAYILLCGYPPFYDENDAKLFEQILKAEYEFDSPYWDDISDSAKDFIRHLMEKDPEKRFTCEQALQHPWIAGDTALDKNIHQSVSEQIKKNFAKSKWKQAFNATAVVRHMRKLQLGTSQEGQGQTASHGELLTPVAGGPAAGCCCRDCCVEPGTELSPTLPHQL
Sequence of TTBK1, construct: Full length (Q5TCY1 whole entry, looked up): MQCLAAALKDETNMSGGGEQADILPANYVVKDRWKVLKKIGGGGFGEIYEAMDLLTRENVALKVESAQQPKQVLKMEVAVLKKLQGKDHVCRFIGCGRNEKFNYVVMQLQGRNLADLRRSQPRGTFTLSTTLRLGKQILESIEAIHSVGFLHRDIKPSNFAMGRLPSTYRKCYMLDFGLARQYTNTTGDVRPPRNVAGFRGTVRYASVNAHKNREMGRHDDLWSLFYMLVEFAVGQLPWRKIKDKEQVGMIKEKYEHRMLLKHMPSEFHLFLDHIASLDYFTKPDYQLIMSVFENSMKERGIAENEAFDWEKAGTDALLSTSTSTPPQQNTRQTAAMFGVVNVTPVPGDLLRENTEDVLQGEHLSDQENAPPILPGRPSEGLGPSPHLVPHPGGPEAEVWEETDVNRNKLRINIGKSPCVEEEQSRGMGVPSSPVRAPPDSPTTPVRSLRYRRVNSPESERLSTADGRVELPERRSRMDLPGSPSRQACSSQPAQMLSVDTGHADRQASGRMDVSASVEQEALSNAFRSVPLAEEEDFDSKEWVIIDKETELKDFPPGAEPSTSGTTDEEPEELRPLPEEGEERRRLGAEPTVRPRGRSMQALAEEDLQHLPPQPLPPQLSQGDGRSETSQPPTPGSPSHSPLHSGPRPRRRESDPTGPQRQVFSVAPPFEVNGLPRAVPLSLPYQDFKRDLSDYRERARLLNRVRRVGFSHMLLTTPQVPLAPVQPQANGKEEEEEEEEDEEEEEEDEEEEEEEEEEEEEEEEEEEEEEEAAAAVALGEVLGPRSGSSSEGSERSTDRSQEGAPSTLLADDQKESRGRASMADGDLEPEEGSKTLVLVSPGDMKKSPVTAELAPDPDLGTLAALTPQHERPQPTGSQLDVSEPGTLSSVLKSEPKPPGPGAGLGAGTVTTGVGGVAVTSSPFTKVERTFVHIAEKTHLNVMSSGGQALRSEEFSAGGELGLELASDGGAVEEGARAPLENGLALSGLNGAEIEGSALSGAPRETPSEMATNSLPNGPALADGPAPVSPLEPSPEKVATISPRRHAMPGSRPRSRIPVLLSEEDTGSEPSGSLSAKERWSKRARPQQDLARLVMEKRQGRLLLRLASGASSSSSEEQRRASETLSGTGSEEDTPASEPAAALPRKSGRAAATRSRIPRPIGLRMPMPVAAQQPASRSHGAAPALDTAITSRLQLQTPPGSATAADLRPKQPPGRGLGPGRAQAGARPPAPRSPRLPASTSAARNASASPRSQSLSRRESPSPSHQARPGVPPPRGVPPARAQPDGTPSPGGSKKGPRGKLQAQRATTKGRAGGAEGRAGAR
Sequence of EIF2AK1, construct: Full length (Q9BQI3 whole entry, looked up): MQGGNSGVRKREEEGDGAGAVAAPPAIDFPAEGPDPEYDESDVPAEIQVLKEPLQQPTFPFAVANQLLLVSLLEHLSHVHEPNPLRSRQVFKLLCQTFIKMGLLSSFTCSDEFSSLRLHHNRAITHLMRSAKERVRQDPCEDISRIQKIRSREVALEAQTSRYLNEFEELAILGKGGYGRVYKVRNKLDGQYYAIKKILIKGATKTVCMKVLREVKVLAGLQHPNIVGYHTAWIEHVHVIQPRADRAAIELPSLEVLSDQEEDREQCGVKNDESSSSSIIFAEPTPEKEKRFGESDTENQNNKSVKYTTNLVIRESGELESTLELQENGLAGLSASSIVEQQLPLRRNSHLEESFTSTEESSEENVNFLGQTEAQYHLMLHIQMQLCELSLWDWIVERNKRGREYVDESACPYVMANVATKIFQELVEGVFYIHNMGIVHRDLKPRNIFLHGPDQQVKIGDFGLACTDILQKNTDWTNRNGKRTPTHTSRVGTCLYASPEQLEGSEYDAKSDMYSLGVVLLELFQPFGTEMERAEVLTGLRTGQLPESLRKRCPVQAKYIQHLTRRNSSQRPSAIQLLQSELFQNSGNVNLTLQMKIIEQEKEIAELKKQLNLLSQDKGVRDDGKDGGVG
Sequence of MAP4K3, construct: aa1-380 (Q8IVH8 1-380, looked up): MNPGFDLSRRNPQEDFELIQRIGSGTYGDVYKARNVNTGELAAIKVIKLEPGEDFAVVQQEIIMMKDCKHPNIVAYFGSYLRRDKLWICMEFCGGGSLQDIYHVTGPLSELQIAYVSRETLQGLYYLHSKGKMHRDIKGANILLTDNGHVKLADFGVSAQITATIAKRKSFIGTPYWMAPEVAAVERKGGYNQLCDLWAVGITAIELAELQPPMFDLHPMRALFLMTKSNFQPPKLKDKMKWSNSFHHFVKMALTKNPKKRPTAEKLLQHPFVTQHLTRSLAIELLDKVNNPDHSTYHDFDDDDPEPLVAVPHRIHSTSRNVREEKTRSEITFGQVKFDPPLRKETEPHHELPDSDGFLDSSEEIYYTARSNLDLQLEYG
Sequence of MOK, construct: aa1-343 (Q9UQ07 1-343, looked up): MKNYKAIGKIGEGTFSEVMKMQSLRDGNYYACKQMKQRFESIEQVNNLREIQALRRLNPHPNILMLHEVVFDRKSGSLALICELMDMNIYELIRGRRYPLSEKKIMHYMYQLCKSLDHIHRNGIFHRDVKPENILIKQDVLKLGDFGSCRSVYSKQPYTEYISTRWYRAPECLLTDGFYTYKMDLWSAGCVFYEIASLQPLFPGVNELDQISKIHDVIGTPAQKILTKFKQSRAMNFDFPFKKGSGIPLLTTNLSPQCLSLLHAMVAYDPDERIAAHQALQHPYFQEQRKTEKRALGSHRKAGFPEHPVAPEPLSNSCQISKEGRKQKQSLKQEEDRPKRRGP
Sequence of CHEK2, construct: Full length (O96017 whole entry, looked up): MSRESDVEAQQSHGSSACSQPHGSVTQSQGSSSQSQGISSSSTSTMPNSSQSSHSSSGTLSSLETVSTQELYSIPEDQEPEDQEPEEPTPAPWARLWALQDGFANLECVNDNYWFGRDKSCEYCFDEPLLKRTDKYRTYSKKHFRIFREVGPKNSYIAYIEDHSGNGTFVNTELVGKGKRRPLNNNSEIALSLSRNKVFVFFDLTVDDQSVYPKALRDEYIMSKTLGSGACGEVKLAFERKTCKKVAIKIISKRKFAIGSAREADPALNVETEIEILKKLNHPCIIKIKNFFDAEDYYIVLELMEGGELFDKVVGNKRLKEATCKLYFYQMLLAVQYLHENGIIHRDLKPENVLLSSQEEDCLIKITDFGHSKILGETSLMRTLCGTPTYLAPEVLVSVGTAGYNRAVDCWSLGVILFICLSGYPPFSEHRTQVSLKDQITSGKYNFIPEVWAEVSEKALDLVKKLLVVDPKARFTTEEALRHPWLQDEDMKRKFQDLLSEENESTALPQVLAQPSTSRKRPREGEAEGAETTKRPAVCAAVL

| Substance | relative phosphorylation |
| --- | --- |
| TTBK1, construct: Full length (from UniProt Q5TCY1) | 0.666 |
| CHEK2, construct: Full length (from UniProt O96017) | 0.208 |
| MAP4K3, construct: aa1-380 (from UniProt Q8IVH8) | 1.07 |
| CAMK1, construct: Full length (from UniProt Q14012) | 0.369 |
| MAP3K10, construct: aa1-449 (from UniProt Q02779) | 1.54 |
| EIF2AK1, construct: Full length (from UniProt Q9BQI3) | 0.904 |
| PKN3, construct: Full length (from UniProt Q6P5Z2) | 0.713 |

Same assay, conditions: N fixed; at -4

| Substance | relative phosphorylation |
| --- | --- |
| MOK, construct: aa1-343 (from UniProt Q9UQ07) | 0.628 |
| TTBK1, construct: Full length (from UniProt Q5TCY1) | 0.683 |
| CHEK2, construct: Full length (from UniProt O96017) | 0.651 |
| MAP4K3, construct: aa1-380 (from UniProt Q8IVH8) | 0.867 |
| CAMK1, construct: Full length (from UniProt Q14012) | 0.802 |
| MAP3K10, construct: aa1-449 (from UniProt Q02779) | 1.17 |
| EIF2AK1, construct: Full length (from UniProt Q9BQI3) | 0.826 |
| PKN3, construct: Full length (from UniProt Q6P5Z2) | 1.25 |

Same assay, conditions: N fixed; at -5

| Substance | relative phosphorylation |
| --- | --- |
| MOK, construct: aa1-343 (from UniProt Q9UQ07) | 0.784 |
| TTBK1, construct: Full length (from UniProt Q5TCY1) | 0.626 |
| CHEK2, construct: Full length (from UniProt O96017) | 0.491 |
| MAP4K3, construct: aa1-380 (from UniProt Q8IVH8) | 1.01 |
| CAMK1, construct: Full length (from UniProt Q14012) | 0.394 |
| MAP3K10, construct: aa1-449 (from UniProt Q02779) | 1.01 |
| EIF2AK1, construct: Full length (from UniProt Q9BQI3) | 0.728 |
| PKN3, construct: Full length (from UniProt Q6P5Z2) | 1.06 |

Same assay, conditions: P fixed; at +1

| Substance | relative phosphorylation |
| --- | --- |
| MOK, construct: aa1-343 (from UniProt Q9UQ07) | 6.41 |
| TTBK1, construct: Full length (from UniProt Q5TCY1) | 0.0712 |
| CHEK2, construct: Full length (from UniProt O96017) | 0.389 |
| MAP4K3, construct: aa1-380 (from UniProt Q8IVH8) | 0.418 |
| CAMK1, construct: Full length (from UniProt Q14012) | 0.263 |
| MAP3K10, construct: aa1-449 (from UniProt Q02779) | 0.32 |
| EIF2AK1, construct: Full length (from UniProt Q9BQI3) | 0.293 |
| PKN3, construct: Full length (from UniProt Q6P5Z2) | 0.426 |

Same assay, conditions: P fixed; at +2

| Substance | relative phosphorylation |
| --- | --- |
| MOK, construct: aa1-343 (from UniProt Q9UQ07) | 1.12 |
| TTBK1, construct: Full length (from UniProt Q5TCY1) | 0.231 |
| CHEK2, construct: Full length (from UniProt O96017) | 0.946 |
| MAP4K3, construct: aa1-380 (from UniProt Q8IVH8) | 1.16 |
| CAMK1, construct: Full length (from UniProt Q14012) | 0.598 |
| MAP3K10, construct: aa1-449 (from UniProt Q02779) | 0.67 |
| EIF2AK1, construct: Full length (from UniProt Q9BQI3) | 0.692 |
| PKN3, construct: Full length (from UniProt Q6P5Z2) | 0.432 |

Same assay, conditions: P fixed; at +3

| Substance | relative phosphorylation |
| --- | --- |
| MOK, construct: aa1-343 (from UniProt Q9UQ07) | 1.13 |
| TTBK1, construct: Full length (from UniProt Q5TCY1) | 0.421 |
| CHEK2, construct: Full length (from UniProt O96017) | 0.956 |
| MAP4K3, construct: aa1-380 (from UniProt Q8IVH8) | 0.942 |
| CAMK1, construct: Full length (from UniProt Q14012) | 0.75 |
| MAP3K10, construct: aa1-449 (from UniProt Q02779) | 1.06 |
| EIF2AK1, construct: Full length (from UniProt Q9BQI3) | 0.917 |
| PKN3, construct: Full length (from UniProt Q6P5Z2) | 0.736 |

Same assay, conditions: P fixed; at +4

| Substance | relative phosphorylation |
| --- | --- |
| MOK, construct: aa1-343 (from UniProt Q9UQ07) | 1.11 |
| TTBK1, construct: Full length (from UniProt Q5TCY1) | 1.23 |
| CHEK2, construct: Full length (from UniProt O96017) | 1.04 |
| MAP4K3, construct: aa1-380 (from UniProt Q8IVH8) | 1.11 |
| CAMK1, construct: Full length (from UniProt Q14012) | 1.21 |
| MAP3K10, construct: aa1-449 (from UniProt Q02779) | 1.7 |
| EIF2AK1, construct: Full length (from UniProt Q9BQI3) | 0.893 |
| PKN3, construct: Full length (from UniProt Q6P5Z2) | 1.36 |

Same assay, conditions: P fixed; at -1

| Substance | relative phosphorylation |
| --- | --- |
| MOK, construct: aa1-343 (from UniProt Q9UQ07) | 1.33 |
| TTBK1, construct: Full length (from UniProt Q5TCY1) | 0.589 |
| CHEK2, construct: Full length (from UniProt O96017) | 1.06 |
| MAP4K3, construct: aa1-380 (from UniProt Q8IVH8) | 0.741 |
| CAMK1, construct: Full length (from UniProt Q14012) | 1.31 |
| MAP3K10, construct: aa1-449 (from UniProt Q02779) | 0.95 |
| EIF2AK1, construct: Full length (from UniProt Q9BQI3) | 0.374 |
| PKN3, construct: Full length (from UniProt Q6P5Z2) | 1.56 |

Same assay, conditions: P fixed; at -2

| Substance | relative phosphorylation |
| --- | --- |
| MOK, construct: aa1-343 (from UniProt Q9UQ07) | 5.97 |
| TTBK1, construct: Full length (from UniProt Q5TCY1) | 1.04 |
| CHEK2, construct: Full length (from UniProt O96017) | 0.219 |
| MAP4K3, construct: aa1-380 (from UniProt Q8IVH8) | 0.854 |
| CAMK1, construct: Full length (from UniProt Q14012) | 0.245 |
| MAP3K10, construct: aa1-449 (from UniProt Q02779) | 1.87 |
| EIF2AK1, construct: Full length (from UniProt Q9BQI3) | 0.581 |
| PKN3, construct: Full length (from UniProt Q6P5Z2) | 0.721 |

Same assay, conditions: P fixed; at -3

| Substance | relative phosphorylation |
| --- | --- |
| MOK, construct: aa1-343 (from UniProt Q9UQ07) | 1.26 |
| TTBK1, construct: Full length (from UniProt Q5TCY1) | 0.649 |
| CHEK2, construct: Full length (from UniProt O96017) | 0.177 |
| MAP4K3, construct: aa1-380 (from UniProt Q8IVH8) | 1.08 |
| CAMK1, construct: Full length (from UniProt Q14012) | 0.274 |
| MAP3K10, construct: aa1-449 (from UniProt Q02779) | 1.51 |
| EIF2AK1, construct: Full length (from UniProt Q9BQI3) | 0.695 |
| PKN3, construct: Full length (from UniProt Q6P5Z2) | 0.899 |

Same assay, conditions: P fixed; at -4

| Substance | relative phosphorylation |
| --- | --- |
| MOK, construct: aa1-343 (from UniProt Q9UQ07) | 0.96 |
| TTBK1, construct: Full length (from UniProt Q5TCY1) | 0.687 |
| CHEK2, construct: Full length (from UniProt O96017) | 0.548 |
| MAP4K3, construct: aa1-380 (from UniProt Q8IVH8) | 1.13 |
| CAMK1, construct: Full length (from UniProt Q14012) | 0.575 |
| MAP3K10, construct: aa1-449 (from UniProt Q02779) | 1.56 |
| EIF2AK1, construct: Full length (from UniProt Q9BQI3) | 0.73 |

Reference: the supplement of paper PMC9876800
